Laboratory results reported in patent US20110086767A1, “MUTANTS OF GLYCOSIDE HYDROLASES AND USES THEREOF FOR SYNTHESIZING COMPLEX OLIGOSACCHARIDES AND DISACCHARIDE INTERMEDIATES” (Institut Pasteur, priority 2008, published 2011).

Assay: HPLC screening of double-mutant libraries for variants able to glucosylate D-GlcpNAc
Type: biochemical
Details: α-D-Glcp-(1→4)-α-D-GlcpNAc (ED) from sucrose and D-GlcpNAc, microplate format
Description: The protocol was established to enable the rapid identification of clones for which D-GlcpNAc glucosylation was improved. To obtain higher amounts of enzymes and facilitate detection of glucosylated compounds upon HPLC screening, mutants were produced in 96-DeepWell Format plates. Storage microplates containing monomutants were thawed and replicated to inoculate a starter culture in 96-well microplates containing, in each well, 150 μL LB medium supplemented with ampicillin (100 μg/mL). After growth for 24 h at 30° C. under agitation (200 rpm), plates were duplicated into 96-Deep Well plates containing, in each well, 1.1 mL LB medium supplemented with ampicillin (100 μg/mL) and IPTG (1 mM) to induce GST-AS expression. Cultures were then grown for 24 h at 30° C. under agitation (200 rpm). Plates were centrifuged (20 min, 3000 g, 4° C.) and the supernatant was removed. The cell pellet was resuspended in 200 μL of lysozyme (0.5 mg/mL), followed by freezing at −80° C. for 8 to 12 h. After thawing at room temperature, 100 μL of sucrose and 100 μL of acceptor (each at a final concentration of 73 mM) were added to each well. Enzymatic reaction was incubated at 30° C. during 24 h under agitation. The DeepWell plates were then centrifuged (20 min, 3000 g, 4° C.) and 300 μL of the supernatant was transferred to a filter micro-plate (PVDF 0.2 μm) to be clarified. Supernatant filtration was carried out by centrifugation of the filter micro-plate (5 min, 2000 g, 4° C.) into a novel microplate for screening.
The method for the expression of the mutant libraries is described in Example 1-1.
Acceptor reaction products were analyzed by HPLC analysis using a C18-AQ column (Bischoff C18, 125×4 mm, 3 μm) kept at room temperature and eluted with 0.6 mL/min of ultra-pure water to detect α-D-Glcp-(1→4)-α-D-GlcpNAc formation (analysis time: 7 min). To evaluate the efficiency of the glucosylation reaction, it was carried out complementary HPLC analyses with a Biorad HPX-87K Carbohydrate Analysis column (maintained at 65° C., and eluted at a flow rate of 0.6 mL/min with ultra-pure water). By this way, it was possible to measure sucrose consumption by RI detection and concomitant α-D-Glcp-(1-4)-α-D-GlcpNAc formation by UV220 nm and determine mutant ability to synthesize the desired disaccharide α-D-Glcp-(1→4)-α-D-GlcpNAc (i.e., % Glucosyl units transferred onto acceptor derivatives=[Glucosyl units transferred onto acceptor derivatives]/[Glucosyl units transferred from initial sucrose]×100)
All clones producing sucrose-utilizing variants were then picked and cultured in 96-well microplates. Following cell lysis, the acceptor reaction in the presence of D-GlcpNAc was then carried out in microplate format. HLPC analysis time for each clone was reduced to 7 min for detection of α-D-Glcp-(1→4)-α-D-GlcpNAc. When disaccharide formation was detected, complementary analyses were performed to determine sucrose consumption and disaccharide formation with more accuracy in order to calculate the glucosylation yield.

Molecule | Glusosylation Yield to synthesize ED | Glusosylation Yield to synthesize ED (listed as DM4_P1_G7) | Glusosylation Yield to synthesize ED (listed as DM4_P2_B10)
F290V: single mutant F290V of N. polysaccharea amylosucrase (protein) SPNSQYLKTRILDIYTPEQRAGIEKSEDWRQFSRRMDTHFPKLMNELDSVYGNNEALLPMLEMLLAQAWQSYSQRNSSLKDIDIARENNPDWILSNKQVGGVCYVDLFAGDLKGLKDKIPYFQELGLTYLHLMPLFKCPEGKSDGGYAVSSYRDVNPALGTIGDLREVIAALHEAGISAVVDFIFNHTSNEHEWAQRCAAGDPLFDNFYYIFPDRRMPDQYDRTLREIFPDQHPGGFSQLEDGRWVWTTFNSFQWDLNYSNPWVFRAMAGEMLFLANLGVDILRMDAVAVIWKQMGTSCENLPQAHALIRAFNAVMRIAAPAVFFKSEAIVHPDQVVQYIGQDECQIGYNPLQMALLWNTLATREVNLLHQALTYRHNLPEHTAWVNYVRSHDDIGWTFADEDAAYLGISGYDHRQFLNRFFVNRFDGSFARGVPFQYNPSTGDCRVSGTAAALVGLAQDDPHAVDRIKLLYSIALSTGGLPLIYLGDEVGTLNDDDWSQDSNKSDDSRWAHRPRYNEALYAQRNDPSTAAGQIYQDLRHMIAVRQSNPRFDGGRLVTFNTNNKHIIGYIRNNALLAFGNFSEYPQTVTAHTLQAMPFKAHDLIGGKTVSLNQDLTLQPYQVMWLEIA | 100% |  | 
I228V-F290K: double mutant I228V, F290K of N. polysaccharea amylosucrase (protein) SPNSQYLKTRILDIYTPEQRAGIEKSEDWRQFSRRMDTHFPKLMNELDSVYGNNEALLPMLEMLLAQAWQSYSQRNSSLKDIDIARENNPDWILSNKQVGGVCYVDLFAGDLKGLKDKIPYFQELGLTYLHLMPLFKCPEGKSDGGYAVSSYRDVNPALGTIGDLREVIAALHEAGISAVVDFIFNHTSNEHEWAQRCAAGDPLFDNFYYIFPDRRMPDQYDRTLREVFPDQHPGGFSQLEDGRWVWTTFNSFQWDLNYSNPWVFRAMAGEMLFLANLGVDILRMDAVAKIWKQMGTSCENLPQAHALIRAFNAVMRIAAPAVFFKSEAIVHPDQVVQYIGQDECQIGYNPLQMALLWNTLATREVNLLHQALTYRHNLPEHTAWVNYVRSHDDIGWTFADEDAAYLGISGYDHRQFLNRFFVNRFDGSFARGVPFQYNPSTGDCRVSGTAAALVGLAQDDPHAVDRIKLLYSIALSTGGLPLIYLGDEVGTLNDDDWSQDSNKSDDSRWAHRPRYNEALYAQRNDPSTAAGQIYQDLRHMIAVRQSNPRFDGGRLVTFNTNNKHIIGYIRNNALLAFGNFSEYPQTVTAHTLQAMPFKAHDLIGGKTVSLNQDLTLQPYQVMWLEIA | 89% |  | 
F290R: single mutant F290R of N. polysaccharea amylosucrase (protein) SPNSQYLKTRILDIYTPEQRAGIEKSEDWRQFSRRMDTHFPKLMNELDSVYGNNEALLPMLEMLLAQAWQSYSQRNSSLKDIDIARENNPDWILSNKQVGGVCYVDLFAGDLKGLKDKIPYFQELGLTYLHLMPLFKCPEGKSDGGYAVSSYRDVNPALGTIGDLREVIAALHEAGISAVVDFIFNHTSNEHEWAQRCAAGDPLFDNFYYIFPDRRMPDQYDRTLREIFPDQHPGGFSQLEDGRWVWTTFNSFQWDLNYSNPWVFRAMAGEMLFLANLGVDILRMDAVARIWKQMGTSCENLPQAHALIRAFNAVMRIAAPAVFFKSEAIVHPDQVVQYIGQDECQIGYNPLQMALLWNTLATREVNLLHQALTYRHNLPEHTAWVNYVRSHDDIGWTFADEDAAYLGISGYDHRQFLNRFFVNRFDGSFARGVPFQYNPSTGDCRVSGTAAALVGLAQDDPHAVDRIKLLYSIALSTGGLPLIYLGDEVGTLNDDDWSQDSNKSDDSRWAHRPRYNEALYAQRNDPSTAAGQIYQDLRHMIAVRQSNPRFDGGRLVTFNTNNKHIIGYIRNNALLAFGNFSEYPQTVTAHTLQAMPFKAHDLIGGKTVSLNQDLTLQPYQVMWLEIA | 100% |  | 
F229V: single mutant F229V of N. polysaccharea amylosucrase (protein) SPNSQYLKTRILDIYTPEQRAGIEKSEDWRQFSRRMDTHFPKLMNELDSVYGNNEALLPMLEMLLAQAWQSYSQRNSSLKDIDIARENNPDWILSNKQVGGVCYVDLFAGDLKGLKDKIPYFQELGLTYLHLMPLFKCPEGKSDGGYAVSSYRDVNPALGTIGDLREVIAALHEAGISAVVDFIFNHTSNEHEWAQRCAAGDPLFDNFYYIFPDRRMPDQYDRTLREIVPDQHPGGFSQLEDGRWVWTTFNSFQWDLNYSNPWVFRAMAGEMLFLANLGVDILRMDAVAFIWKQMGTSCENLPQAHALIRAFNAVMRIAAPAVFFKSEAIVHPDQVVQYIGQDECQIGYNPLQMALLWNTLATREVNLLHQALTYRHNLPEHTAWVNYVRSHDDIGWTFADEDAAYLGISGYDHRQFLNRFFVNRFDGSFARGVPFQYNPSTGDCRVSGTAAALVGLAQDDPHAVDRIKLLYSIALSTGGLPLIYLGDEVGTLNDDDWSQDSNKSDDSRWAHRPRYNEALYAQRNDPSTAAGQIYQDLRHMIAVRQSNPRFDGGRLVTFNTNNKHIIGYIRNNALLAFGNFSEYPQTVTAHTLQAMPFKAHDLIGGKTVSLNQDLTLQPYQVMWLEIA | 88% |  | 
I228A-F290H: double mutant I228A, F290H of N. polysaccharea amylosucrase (protein) SPNSQYLKTRILDIYTPEQRAGIEKSEDWRQFSRRMDTHFPKLMNELDSVYGNNEALLPMLEMLLAQAWQSYSQRNSSLKDIDIARENNPDWILSNKQVGGVCYVDLFAGDLKGLKDKIPYFQELGLTYLHLMPLFKCPEGKSDGGYAVSSYRDVNPALGTIGDLREVIAALHEAGISAVVDFIFNHTSNEHEWAQRCAAGDPLFDNFYYIFPDRRMPDQYDRTLREAFPDQHPGGFSQLEDGRWVWTTFNSFQWDLNYSNPWVFRAMAGEMLFLANLGVDILRMDAVAHIWKQMGTSCENLPQAHALIRAFNAVMRIAAPAVFFKSEAIVHPDQVVQYIGQDECQIGYNPLQMALLWNTLATREVNLLHQALTYRHNLPEHTAWVNYVRSHDDIGWTFADEDAAYLGISGYDHRQFLNRFFVNRFDGSFARGVPFQYNPSTGDCRVSGTAAALVGLAQDDPHAVDRIKLLYSIALSTGGLPLIYLGDEVGTLNDDDWSQDSNKSDDSRWAHRPRYNEALYAQRNDPSTAAGQIYQDLRHMIAVRQSNPRFDGGRLVTFNTNNKHIIGYIRNNALLAFGNFSEYPQTVTAHTLQAMPFKAHDLIGGKTVSLNQDLTLQPYQVMWLEIA | 88% |  | 
I228V-F290V: double mutant I228V, F290V of N. polysaccharea amylosucrase (protein) SPNSQYLKTRILDIYTPEQRAGIEKSEDWRQFSRRMDTHFPKLMNELDSVYGNNEALLPMLEMLLAQAWQSYSQRNSSLKDIDIARENNPDWILSNKQVGGVCYVDLFAGDLKGLKDKIPYFQELGLTYLHLMPLFKCPEGKSDGGYAVSSYRDVNPALGTIGDLREVIAALHEAGISAVVDFIFNHTSNEHEWAQRCAAGDPLFDNFYYIFPDRRMPDQYDRTLREVFPDQHPGGFSQLEDGRWVWTTFNSFQWDLNYSNPWVFRAMAGEMLFLANLGVDILRMDAVAVIWKQMGTSCENLPQAHALIRAFNAVMRIAAPAVFFKSEAIVHPDQVVQYIGQDECQIGYNPLQMALLWNTLATREVNLLHQALTYRHNLPEHTAWVNYVRSHDDIGWTFADEDAAYLGISGYDHRQFLNRFFVNRFDGSFARGVPFQYNPSTGDCRVSGTAAALVGLAQDDPHAVDRIKLLYSIALSTGGLPLIYLGDEVGTLNDDDWSQDSNKSDDSRWAHRPRYNEALYAQRNDPSTAAGQIYQDLRHMIAVRQSNPRFDGGRLVTFNTNNKHIIGYIRNNALLAFGNFSEYPQTVTAHTLQAMPFKAHDLIGGKTVSLNQDLTLQPYQVMWLEIA |  | 90% | 47%
